Experiments:
[1] = molecular target: T1, recombinant human TGFβ2 (human, UniProt P61812 303-414); test: cell-based or functional assay
T1 sequence (looked up): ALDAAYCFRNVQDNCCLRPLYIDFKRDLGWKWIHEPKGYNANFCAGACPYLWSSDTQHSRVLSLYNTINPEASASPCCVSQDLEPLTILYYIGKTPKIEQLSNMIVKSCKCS

[2] = molecular target: T1, recombinant human TGFβ2; test: cell-based or functional assay; remark: listed apart in the source
[3] = molecular target: recombinant human TGFβ1 (human, UniProt P01137 279-390); test: cell-based or functional assay
[4] = molecular target: T1, recombinant human TGFβ2; test: cell-based or functional assay; remark: listed apart in the source
[5] = molecular target: T1, recombinant human TGFβ2; test: BIAcore 2000, koff divided by kon
Method: (§1) To determine the kinetic parameters, a series of dilutions of the antibody samples was made in HBS from about 500 μg/ml down to less than 1 μg/ml, usually through doubling dilutions. After the antibody has been injected over the antigen surface, the surface is washed with HBS, then regenerated by stripping off the bound antibody with a pulse of 100 mM HCl. At the higher concentrations of antibody the antigen on the chip surface is saturated, and the off rate is determined on washing with buffer in the dissociation phase. For determination of the on-rate, lower concentrations of antibody are used, giving a linear binding phase in the sensorgram, allowing kₒₙ determination.
(§2) 6B1 IgG4 was purified from the GS/NS0 cell line of Example 10 as in Example 2. 6B1 single chain Fv was expressed intracellularly in E. coli, refolded in vitro (using the methodology of WO94/18227), and purified to give a homogeneous product. The values of kₒₙ and koff were determined for 6B1 IgG4 for binding to both TGFβ2 and TGFβ3, and for the single-chain Fv 6B1 for binding to TGFβ2. The dissociation constant was calculated by dividing koff by kₒₙ.

[6] = molecular target: T1, recombinant human TGFβ2; test: A549 cell radioreceptor assay (nM IgG)
Method: (§3) Aliqouts of ¹²⁵I-TGFβ1 or TGFβ2 (70-90 TBq/mmol; Amersham International) at 20 pM are preincubated with antibody in binding medium at room temperature for 1 h. Duplicate samples of 0.5 ml of TGFβ/antibody mixtures are then added to the cell monlayers and are incubated at 37° C. for 1-2 h. Control wells contain TGFβ only. Unbound TGFβ is removed by washing 4 times with Hank's balanced salt solution containing 0.1% BSA. Cells are solubilised in 0.8 ml 25 mM Tris HCl pH 7.5, 10% glycerol, 1% Triton X-100 at room temperature for 20 min. The contents of each well are removed and ¹²⁵I measured in a gamma counter.
The ability of 6B1 IgG4 to inhibit binding of TGFβ isoforms to receptors was measured in a radioreceptor assay as described in example 4.

[7] = molecular target: T1, recombinant human TGFβ2; test: BIAcore 2000, antigen immobilised, antibody as analyte
Method: The immobilisation of ligand is automated by the BIACore 2000 machine, and all steps are carried out in the autosampler or in the flowcell, on the dextran surface of the chip. The buffer used throughout the immobilisation procedure, and the analysis of samples is Hepes-buffered saline (HBS) with a surfactant (Pharmacia Biosensor). The chips (Pharmacia, CM5), have dextran coating on a thin layer of gold. NHS at 100 mM and EDC at 400 mM are mixed by the autosampler, and then a fixed volume is injected over the flowcell surface. This is followed by an injection of antigen in a suitable buffer. In the case of TGFβ, a surface of the correct density was given by using 25-30 μg/ml solution of TGFβ2 (AMS) OR TGFβ3 (R & D systems) in 10 mM acetate. After injection of the ligand, the chip is blocked using 1M ethanolamine. The total amount of TGFβ bound was assessed from the total increase in resonance units over this period.
as §1, §2

[8] = molecular target: irrelevant peptide …; test: BIACore, peptide at 745 µM (1 mg/ml) over immobilised 6B1 IgG4 (5000RU)
[9] = molecular target: T2, TGFβ2 in rat tissue sections (rat, UniProt Q07257 331-442, limits assumed); test: immunohistochemistry, 6B1 IgG4 at 500 ng/ml on pronase E treated rat kidney sections
T2 construct: also called rat TGFβ2
T2 sequence (looked up): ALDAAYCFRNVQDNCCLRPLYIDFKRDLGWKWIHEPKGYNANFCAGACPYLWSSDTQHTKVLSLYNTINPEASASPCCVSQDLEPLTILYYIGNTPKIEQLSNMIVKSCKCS
Method: Paraffin embedded rat tissues were de-waxed and rehydrated through an alcohol series. The sections were then treated with 0.1% pronase E for exactly 8 min and then washed in water. TGFβ2 was detected in the sections using 6B1 IgG4 at 500 ng/ml following the protocol provided with a Vectastain ABC (avidin-biotin-complex) kit from Vector Laboratories. On kidney sections, bound antibody was located with alkaline phosphatase and peroxidase was used on rat brain tissues.

[10] = molecular target: T3, bovine serum albumin (bovine, UniProt P02769 25-607); test: ELISA, antigen coated at 10 µg/ml, anti-human Fc alkaline phosphatase conjugate, OD405 nm [a]
T3 construct: also called BSA
Method: For both FIG. 13(a) and FIG. 13(b), antigens 1 to 15 were used for coating the plate at a concentration of 10 μg/ml in PBS. The TGFbetas were coated at 0.2 μg/ml in PBS. Coating was performed at 4° C. overnight. […] of each antigen was used per well and duplicates of each antigen for each IgG to be tested. IgG samples were incubated with the coated antigens at 37° C. for 2 hours after blocking with 2%. marvel-PBS. The labelled second antibody was a mouse anti-human Fc1 alkaline phosphatase conjugated and the substrate used to detect bound second antibody was PNPP at 1 mg/ml with the absorbance read at 405 nm.

[11] = molecular target: T1, recombinant human TGFβ2; test: radioreceptor assay, inhibition of 125I-TGFβ2 binding to A549 cells; concentration of antibody combining sites
Method: Cells are seeded at 1-2×10^5 cells/ml/well into the wells of 24-well cluster plates and grown for 24 h in serum-free DMEM. Cell monlayers are washed twice with serum-free DMEM and 0.5 ml binding medium (DMEM/Hams F12 (Sigma D-6421) containing 0.1% (v/v) BSA added to each well.
as §3

Chain of recombinant human TGFβ1 (P01137 279-390 limits assumed): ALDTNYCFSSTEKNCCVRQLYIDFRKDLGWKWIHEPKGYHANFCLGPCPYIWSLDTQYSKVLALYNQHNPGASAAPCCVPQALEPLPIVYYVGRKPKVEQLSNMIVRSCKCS
T3 sequence (P02769 25-607 limits assumed): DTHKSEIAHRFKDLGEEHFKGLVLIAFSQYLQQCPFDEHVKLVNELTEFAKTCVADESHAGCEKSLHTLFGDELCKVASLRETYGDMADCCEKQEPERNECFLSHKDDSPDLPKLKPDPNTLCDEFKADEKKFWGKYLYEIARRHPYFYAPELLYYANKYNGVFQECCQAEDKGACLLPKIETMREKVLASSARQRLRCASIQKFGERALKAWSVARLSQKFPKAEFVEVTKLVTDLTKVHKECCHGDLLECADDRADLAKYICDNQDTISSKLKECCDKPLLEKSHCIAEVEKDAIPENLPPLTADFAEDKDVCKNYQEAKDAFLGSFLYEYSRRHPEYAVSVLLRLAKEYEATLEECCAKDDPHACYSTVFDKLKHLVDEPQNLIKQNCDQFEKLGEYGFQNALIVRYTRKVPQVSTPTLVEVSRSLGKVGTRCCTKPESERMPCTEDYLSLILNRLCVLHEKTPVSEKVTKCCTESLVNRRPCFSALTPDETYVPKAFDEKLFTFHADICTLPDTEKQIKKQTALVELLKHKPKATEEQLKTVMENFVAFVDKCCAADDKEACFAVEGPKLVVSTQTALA

B1: 6B1 IgG4 (antibody, V domains shown)
VH: EVQLVESGGGVVQPGRSLRLSCAASGFTFSSYGMHWVRQAPGKGLEWVAVIWYDGSNKYYADSVKGRFTISRDNSKNTLYLQMDSLRAEDTAVYYCGRTLESSLWGQGTLVTVSS
VL: SSELTQDPAVSVALGQTVRITCQGDSLRSYYASWYQQKPGQAPVLVIYGKNNRPSGIPDRFSGSSSGNTASLTITGAQAEDEADYYCNSRDSSSTHRGVFGGGTKLTVLG
notes: Whole antibody: human gamma 4 and human lambda constant regions; FITC-labelled in the human tissue study; also called antibody 6B1
IC50 in TF1 neutralisation assay, 6B1 IgG4 from GS/NS0 cell line 5D8-2A6 [1]: 1.8 nM | I.C.50 in TF1 assay (neutralisation of TGFβ2 inhibition of TF1 cell proliferation) [2]: 11 nM | TF1 cell proliferation assay IC50 (nM IgG) [3]: > 100 nM | TF1 cell proliferation assay IC50 (nM IgG) [4]: 2 nM | Kd [5]: 0.89 nM | IC50 [6]: 0.05 nM | koff [7]: 0.000336 s⁻¹ | kon [7]: 384000 M⁻¹ s⁻¹ | amount of binding to 6B1 IgG4 surface, RU [8]: 60.9 RU | binding result [9]: binds | binding result [10]: no binding | IC50 [11]: 0.6 nM

From US20050049403A1 (CAMBRIDGE ANTIBODY TECHNOLOGY, published 2005)
